Measured values published in patent publication US20110076279A1 (SCHERING, published 2011).

T1: hVEGF121-G92A (human, UniProt P15692-9 27-147, G92A)
T1 construct: Transiently expressed in CHO-K1 cells; culture supernatant used
T1 sequence (looked up): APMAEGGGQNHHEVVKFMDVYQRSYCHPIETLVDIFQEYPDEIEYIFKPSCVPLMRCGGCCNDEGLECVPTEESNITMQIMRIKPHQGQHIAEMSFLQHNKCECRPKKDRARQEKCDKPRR

T2: wild-type hVEGF121 (human, UniProt P15692-9 27-147)
T2 construct: Isoform VEGF121 of P15692
T2 sequence (looked up): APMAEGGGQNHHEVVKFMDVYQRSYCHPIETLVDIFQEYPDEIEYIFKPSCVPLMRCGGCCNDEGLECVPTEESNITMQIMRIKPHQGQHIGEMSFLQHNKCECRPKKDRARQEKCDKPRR

T3: hVEGF121-M81A (human, UniProt P15692-9 27-147)
T3 construct: Transiently expressed in CHO-K1 cells; culture supernatant used
T3 sequence (looked up): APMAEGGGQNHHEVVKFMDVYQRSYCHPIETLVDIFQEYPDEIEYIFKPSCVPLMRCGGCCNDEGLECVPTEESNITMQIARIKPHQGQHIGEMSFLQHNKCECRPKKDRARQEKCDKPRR

T4: hVEGF121-G88S (human, UniProt P15692-9 27-147, G88S)
T4 construct: Transiently expressed in CHO-K1 cells; culture supernatant used
T4 sequence (looked up): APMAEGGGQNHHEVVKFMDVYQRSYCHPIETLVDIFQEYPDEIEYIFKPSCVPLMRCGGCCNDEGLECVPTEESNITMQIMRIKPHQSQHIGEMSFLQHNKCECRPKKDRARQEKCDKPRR

T5: hVEGF121-Q89A (human, UniProt P15692-9 27-147, Q89A)
T5 construct: Transiently expressed in CHO-K1 cells; culture supernatant used
T5 sequence (looked up): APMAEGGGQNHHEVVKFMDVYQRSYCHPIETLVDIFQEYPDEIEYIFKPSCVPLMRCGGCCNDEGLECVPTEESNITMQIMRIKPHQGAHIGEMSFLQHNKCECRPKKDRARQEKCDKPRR

T6: murine VEGF165 (mVEGF165) (murine, UniProt Q00731-2 27-190)
T6 construct: also called rMu-VEGF165; recombinant mVEGF165
T6 sequence (looked up): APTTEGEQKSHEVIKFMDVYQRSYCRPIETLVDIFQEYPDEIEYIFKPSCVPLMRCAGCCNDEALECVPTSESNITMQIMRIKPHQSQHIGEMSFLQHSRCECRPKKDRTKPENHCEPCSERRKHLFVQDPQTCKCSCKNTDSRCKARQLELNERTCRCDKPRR


Tests used:
human VEGF165 (hVEGF165) [1] = target: T7, human VEGF165 (hVEGF165) (human, UniProt P15692 207-395); test: DELFIA competition, biotinylated hVEGF165 0.5 µg/ml plus periplasmic scFv on VEGF-R1 or VEGF-R2 coated plate
human VEGF165 (hVEGF165) [2] = target: T7, human VEGF165 (hVEGF165); test: Biacore
human VEGF165 (hVEGF165) [3] = target: T7, human VEGF165 (hVEGF165); test: cell-based or functional assay
human VEGF165 (hVEGF165) [4] = target: T7, human VEGF165 (hVEGF165); test: Biacore, IgG2 (summary table)
Procedure: Dilution and running buffer for these experiments was HBS-EP (Biacore) with 1:50 dilution of Chemiblocker® (Chemicon). […] Antibody concentrations were approximately 0.5 μg/ml. hVEGF₁₆₅ expressed from sf21 cells was injected over five minutes at 30 μl/minute using the Kinject feature with 15 minute dissociation over fc1 and 2. […] Regenerations were performed with two injections of 100 mM HCl at 50 μl/minutes for twelve seconds each. Data was processed in Scrubber2 and fit by a 1:1 Langmuir interaction model after double referencing of the control flow cell and blank injections.

hVEGF121-G92A = target: T1, hVEGF121-G92A; test: sandwich ELISA, antibody coated 5 ug/ml
Procedure: (§1) The plate was blocked with 30% ChemiBlock™ reagent (Millipore) in PBS for one hour at room temperature, and 30, 60, or 100 μl of CHO-K1 culture supernatant for each mutant, or 1 μg/ml of wild-type hVEGF₁₂₁, recombinant hVEGF₁₆₅, or recombinant mVEGF₁₆₅, was added to appropriate wells. After one hour of incubation, the plate was washed and incubated with a biotinylated goat polyclonal anti-VEGF antibody for one hour at room temperature. Detection was performed with HRP-conjugated streptavidin, followed by TMB chromogenic substrate (Calbiochem) using manufacturer protocol.

human VEGF165 (hVEGF165) [5] = target: T7, human VEGF165 (hVEGF165); test: sandwich ELISA, antibody coated 5 ug/ml
Procedure: as §1

wild-type hVEGF121 = target: T2, wild-type hVEGF121; test: sandwich ELISA, antibody coated 5 ug/ml
Procedure: as §1

hVEGF121-M81A = target: T3, hVEGF121-M81A; test: sandwich ELISA, antibody coated 5 ug/ml
Procedure: as §1

hVEGF121-G88S = target: T4, hVEGF121-G88S; test: sandwich ELISA, antibody coated 5 ug/ml
Procedure: as §1

hVEGF121-Q89A = target: T5, hVEGF121-Q89A; test: sandwich ELISA, antibody coated 5 ug/ml
Procedure: as §1

[6] = target: T6, murine VEGF165 (mVEGF165); test: sandwich ELISA, antibody coated 5 ug/ml; sandwich ELISA, Ab coated at 5 ug/ml, murine VEGF165 at 1 ug/ml; signal at background, i.e. no binding
Procedure: as §1

human VEGF165 (hVEGF165) [7] = target: T7, human VEGF165 (hVEGF165); test: cell-based or functional assay; remark: listed apart in the source

| Binder | percent inhibition of hVEGF165 binding to receptor (human VEGF165 (hVEGF165) [1]) [%] | off-rate relative to Bevacizumab (human VEGF165 (hVEGF165) [2]) [fold] | Inhibition of HUVEC proliferation, HEK 293 hVEGF165, EC50 (human VEGF165 (hVEGF165) [3]) [mg/L] | Kd (human VEGF165 (hVEGF165) [4]) [nM] | fold over background (hVEGF121-G92A) [fold] | fold over background (human VEGF165 (hVEGF165) [5]) [fold] | fold over background (wild-type hVEGF121) [fold] | fold over background (hVEGF121-M81A) [fold] | fold over background (hVEGF121-G88S) [fold] | fold over background (hVEGF121-Q89A) [fold] | fold over background [6] [fold] | IC50 (human VEGF165 (hVEGF165) [7]) [mg/L] |
| --- | --- | --- | --- | --- | --- | --- | --- | --- | --- | --- | --- | --- |
| XPA.10.072 scFv (scFv, part only; not given: linker, domain order, tags, V domains shown, not shown: another chain or arm of the molecule; large carriers; small tags and cut ends) VH: RLQLVQSGAEVRKPGASVKVSCKASGYSFTGHYIHWARQAPGQGLEWMGWINPYSGGTNFPREFQGRVTMTRDTSVNTVYMELTRLTSDDTSVYYCARDHRIVGGLDYWGQGTLVTVSS VL: QSVLTQPPSASGTPGQRVTISCSGSSSNLGSNFVYWYQQLPGTAPKLLIYRNHQRPSGVPDRFSGSKSGTSASLAISGLRSEDEADYYCASWDDSLRVVVFGGGTKLTVL | > 60 |  |  |  |  |  |  |  |  |  |  |  |
| XPA.10.072 IgG2 (antibody, V domains shown, Fully human antibody from an scFv phage library, converted to IgG2 (gamma-2 heavy chain constant region); also called XPA.072; VPA.10.072) VH: RLQLVQSGAEVRKPGASVKVSCKASGYSFTGHYIHWARQAPGQGLEWMGWINPYSGGTNFPREFQGRVTMTRDTSVNTVYMELTRLTSDDTSVYYCARDHRIVGGLDYWGQGTLVTVSS VL: QSVLTQPPSASGTPGQRVTISCSGSSSNLGSNFVYWYQQLPGTAPKLLIYRNHQRPSGVPDRFSGSKSGTSASLAISGLRSEDEADYYCASWDDSLRVVVFGGGTKLTVL |  | ~2 | 0.68 | 1.7 | 30.5 | 29.2 | 31.8 | 13.4 | 1 | 3.3 | 1.1 |  |
| XPA.10.064 scFv-Fc (Fc fusion, not shown: a dimerising Fc or GST; small tags and cut ends) VH: EVQLVQSGAEVRKPGASVKVSCKASGYSFTGHYIHWVRQAPGQGLEWMGWINPYSGGTNFPREFQGRVTMTRDTSVNTVYMELTRLTSDDTSVYYCARDHRIVGGLDYWGQGTLVTVSS VL: SYVLTQPPSASGTPGQRVTISCSGSSSNIGINYVYWYQQLPGTAPKLLIYRNDQRPSGVPDRFSGSKSGTSASLAISGLRSEDEADYYCATWDDSLSGVVFGGGTKVTVL |  |  |  |  |  |  |  |  |  |  |  | 0.41 |
| XPA.10.072 scFv-Fc (Fc fusion, not shown: a dimerising Fc or GST; small tags and cut ends) VH: RLQLVQSGAEVRKPGASVKVSCKASGYSFTGHYIHWARQAPGQGLEWMGWINPYSGGTNFPREFQGRVTMTRDTSVNTVYMELTRLTSDDTSVYYCARDHRIVGGLDYWGQGTLVTVSS VL: QSVLTQPPSASGTPGQRVTISCSGSSSNLGSNFVYWYQQLPGTAPKLLIYRNHQRPSGVPDRFSGSKSGTSASLAISGLRSEDEADYYCASWDDSLRVVVFGGGTKLTVL |  |  |  |  |  |  |  |  |  |  |  | > 1 |
| XPA.10.064 IgG2 (antibody, V domains shown, Fully human antibody from an scFv phage library, converted to IgG2 (gamma-2 heavy chain constant region); also called VPA.10.064) VH: EVQLVQSGAEVRKPGASVKVSCKASGYSFTGHYIHWVRQAPGQGLEWMGWINPYSGGTNFPREFQGRVTMTRDTSVNTVYMELTRLTSDDTSVYYCARDHRIVGGLDYWGQGTLVTVSS VL: SYVLTQPPSASGTPGQRVTISCSGSSSNIGINYVYWYQQLPGTAPKLLIYRNDQRPSGVPDRFSGSKSGTSASLAISGLRSEDEADYYCATWDDSLSGVVFGGGTKVTVL |  | ~2 | 0.66 | 1.5 | 22.8 | 23 | 29.1 | 9.5 | 0.9 | 3.5 | 0.7 |  |
| XPA.10.064 scFv (scFv, part only; not given: linker, domain order, tags, V domains shown, not shown: another chain or arm of the molecule; large carriers; small tags and cut ends) VH: EVQLVQSGAEVRKPGASVKVSCKASGYSFTGHYIHWVRQAPGQGLEWMGWINPYSGGTNFPREFQGRVTMTRDTSVNTVYMELTRLTSDDTSVYYCARDHRIVGGLDYWGQGTLVTVSS VL: SYVLTQPPSASGTPGQRVTISCSGSSSNIGINYVYWYQQLPGTAPKLLIYRNDQRPSGVPDRFSGSKSGTSASLAISGLRSEDEADYYCATWDDSLSGVVFGGGTKVTVL | > 60 |  |  |  |  |  |  |  |  |  |  |  |
